Here are results for one molecule from patent US20100056764A1 (Novo Nordisk, published 2010).

Read-outs that look alike come from different tables or passages of the source.

For one test, the target named is T1, mouse NKG2D (mouse, UniProt O54709 1-232, limits assumed).
T1 construct: The assay format for the cross-reactivity test is not described
T1 sequence (looked up): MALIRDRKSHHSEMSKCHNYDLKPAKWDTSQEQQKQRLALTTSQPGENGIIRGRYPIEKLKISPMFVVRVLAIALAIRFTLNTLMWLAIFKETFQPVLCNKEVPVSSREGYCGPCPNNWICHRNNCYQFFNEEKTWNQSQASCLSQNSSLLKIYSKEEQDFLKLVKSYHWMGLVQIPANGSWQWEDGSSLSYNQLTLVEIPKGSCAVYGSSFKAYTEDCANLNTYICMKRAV
Briefly: not described.

The target in a further test is T2, rat NKG2D (rat, UniProt O70215 1-215, limits assumed).
T2 construct: The assay format for the cross-reactivity test is not described
T2 sequence (looked up): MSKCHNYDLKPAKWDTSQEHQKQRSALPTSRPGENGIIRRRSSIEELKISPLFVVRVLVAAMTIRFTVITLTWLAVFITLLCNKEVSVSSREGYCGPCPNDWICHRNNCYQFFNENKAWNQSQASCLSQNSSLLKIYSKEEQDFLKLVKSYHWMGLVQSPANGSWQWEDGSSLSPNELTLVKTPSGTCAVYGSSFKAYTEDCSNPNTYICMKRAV
Briefly: not described.

Test [1] addresses T3, human NKG2D (hNKG2D) on the cell surface (human, UniProt P26718 1-216).
T3 chain: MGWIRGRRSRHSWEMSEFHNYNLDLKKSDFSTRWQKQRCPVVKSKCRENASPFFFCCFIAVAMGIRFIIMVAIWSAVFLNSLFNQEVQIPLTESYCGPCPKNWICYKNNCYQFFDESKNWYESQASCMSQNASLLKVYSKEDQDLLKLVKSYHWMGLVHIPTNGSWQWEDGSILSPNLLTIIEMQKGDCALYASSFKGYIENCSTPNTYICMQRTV
Briefly: cell-based or functional assay.

Test [2] concerns the target T4, recombinant NKG2D-Fc protein (R&D Systems), immobilized on a Biacore CM5 chip (human, UniProt P26718 78-216).
T4 construct: also called NKG2D-hFc; hFc-NKG2D; not shown: Fc portion of the purchased fusion protein
T4 sequence: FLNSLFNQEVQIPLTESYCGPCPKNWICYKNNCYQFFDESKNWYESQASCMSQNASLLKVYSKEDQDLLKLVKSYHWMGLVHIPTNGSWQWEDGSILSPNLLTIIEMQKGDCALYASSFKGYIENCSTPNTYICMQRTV
Briefly: SPR (Biacore), mean of the two NKG2D-Fc densities. How it is done:
(§1) Protein immobilisation. […] Recombinant NKG2D-Fc proteins were immobilized covalently to carboxyl groups in the dextran layer on a Sensor Chip CM5 (Biacore GE Healthcare; BR-1000-14). The sensor chip surface was activated with EDC/NHS (N-ethyl-N′-(3-dimethylaminopropyl)carbodiimidehydrochloride and N-hydroxysuccinimide (Biacore GE Healthcare; BR-1000-50)). Proteins were diluted to 10 μg/ml in coupling buffer (10 mM acetate, pH 5.2) and injected until the appropriate immobilization level was reached (i.e. 500 to 1000 RU). Deactivation of the remaining activated groups was performed using 100 mM ethanolamine pH 8 (Biacore GE Healthcare; BR-1000-50).
(§2) Affinity measurement. […] For kinetic experiments, serial dilutions of soluble antibodies (from 0.3 to 30 nanoM) were injected for 2 min at a constant flow rate of 40 μl/min on dextran layers containing immobilized NKG2D-Fc proteins (500 to 1000 RU), and allowed to dissociate for 3 min before regeneration by a eight second injection of 500 mM NaCl and 10 mM NaOH buffer. The resulting sensorgrams were analysed by global fitting using the Langmuir model. The dissociation constant (KD) was calculated as KD=kd/ka.
A general note: SPR reads the build-up and loss of mass on a sensor chip optically.

Test [3] addresses T4, recombinant NKG2D-Fc protein (R&D …). Briefly: SPR (Biacore), NKG2D-Fc immobilized on CM5 chip at 600 RU, antibody in solution, Langmuir fit. How it is done:
as §1, §2

Test [4] has as its target T3, human NKG2D (hNKG2D) on the cell surface. Briefly: flow cytometry, NKG2D/DAP10 BaF/3 cells pre-incubated with antibody, then 1 µg MICA-mFc (competitor). On the procedure: (§3) Flow cytometry assays—MICA blockade. […] The cells were then analysed on a B&D FACSArray flow cytometer. The degree of reduction of MICA binding by preincubation was analysed as MFI (mean fluorescence intensity) of binding with pre-incubation in % of binding of MICA without preincubation.
On the technique in general: In flow cytometry, cells or beads pass a laser one at a time.

The target is the same in test [5]. The test is described as above. How it is done:
as §3

For test [6] the target is unchanged. Briefly: flow cytometry, dose-response on NKG2D- and DAP10-expressing BaF/3 cells, y axis % of max binding.
For test [7], the target named is T5, cynomolgous monkey NKG2D on NK, CD8+ T and gamma-delta T cells (cynomolgous monkey (Macaca fascicularis), UniProt P61252 1-216).
T5 construct: whole, on cells; Target on cynomolgous PBMC and whole blood cells; also called cynomologous NKG2D; cyno NKG2D
T5 sequence (looked up): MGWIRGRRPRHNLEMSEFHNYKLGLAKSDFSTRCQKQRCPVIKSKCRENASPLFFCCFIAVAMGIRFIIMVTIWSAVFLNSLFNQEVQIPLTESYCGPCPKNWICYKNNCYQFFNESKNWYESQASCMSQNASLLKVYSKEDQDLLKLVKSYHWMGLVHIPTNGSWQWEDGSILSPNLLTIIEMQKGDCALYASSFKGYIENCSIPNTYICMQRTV
Briefly: flow cytometry on cynomolgous PBMC, NK cells gated; the legend names 16F16 purified from the original hybridoma. How it is done:
Flow cytometry assay—man and monkey PBMC. Perifieral blood mononuclear cells (PMBCs) were isolated from humans, or from Cynomologous or Rhesus monkey. All animal work were performed according to Danish National Research Council guidelines.

B1: 16F16, fully human anti-hNKG2D monoclonal antibody, recombinantly expressed as IgG4 isotype (antibody, V domains shown)
VH: EVQLVESGGGLVKPGGSLRLSCAASGFTFSSYSMNWVRQAPGKGLEWVSSITSSSSYIYYADSVKGRFTISRDNAKNSLYLQMNSLRAEDTAVYYCARDRRYFDWFPLDYRGQGTLVTVSS
VL: DIQMTQSPSSLSASVGDRVTITCRASQGISSWLAWYQQKPEKAPKSLIYAASSLQSGVPSRFSGSGSGTDFTLTISSLQPEDFATYYCQQYNGYPYTFGQGTKLEIKR
notes: also called 16F16 IgG4; 16F16 (IgG4)
Usually Kd stands for the constant that tells how readily two partners part at equilibrium. The term IC50 denotes the concentration that gives 50% inhibition. Broadly, the EC50 (read off the curve) is the concentration at which the effect is half-maximal. For B1, the binding result with mouse NKG2D is “no binding”; with rat NKG2D, “no binding”; in test [7], “binds”. For the same molecule, the “EC50 (µg/ml), inhibition of NK cell killing of MICA-expressing target cells (51Cr release)” value in test [1] is 0.14 µg/mL. Moreover, in [1], the “EC50 (µg/ml), inhibition of NK cell killing of ULPB3-expressing target cells (51Cr release)” value came out at 0.35 µg/mL. Besides, the figures for the Kd in test [2] and in test [3] were 172 pM and 165 pM, respectively. Further, the half-maximal inhibitory concentration (IC50) amounted to 17 pM in test [4] and 0.019 µg/mL in test [5]. Besides, in test [5], the “Full blockade of 1 µg MICA-Fc (antibody concentration)” value is 0.59 µg/mL. In test [6], the concentration for a half-maximal effect (EC50 (read off the curve)) was about 30 pM.
